The supplement of paper PMC9170038

Tested on: K4 kissing-loop RNA reporter
Assay: apparent KD of K4 kissing-loop reporter; higher = weaker reporter binding
Conditions: Eterna round: R107
Description: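 RNA-MaP round R107: designed RNA switches with theophylline, tryptophan, arginine or FMN aptamers are transcribed on-chip within common flanks. They are titrated with a labelled K4 kissing-loop RNA reporter in RNA-MaP buffer (100 mM Tris pH 7.5, 80 mM KCl, 4 mM MgCl2), without ligand or with the indicated ligand. Median apparent KD per design.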

[1] = input ligand: theophylline 20 uM
[2] = input ligand: tryptophan 2.4 mM
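Also: bound reporter read as fluorescence of individual clusters on recovered sequencing chips by microscopy, with normalized cluster intensities fitted with a binding model.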

| Sequence | apparent KD of K4 kissing-loop reporter (input ligand: FMN 200 uM) | apparent KD of K4 kissing-loop reporter (input ligand: arginine 13.2 mM) | apparent KD of K4 kissing-loop reporter (input ligand: none) | apparent KD of K4 kissing-loop reporter [1] | apparent KD of K4 kissing-loop reporter [2] |
| --- | --- | --- | --- | --- | --- |
| GCCCUCUUAACGGCCGCCACUAUAUUUAUGAUCUCUAGUAAGUGAUGUUUACUCCGGCUUAUAGGUAGGACCGGGUUAUUAUCUU [theeternabot_sameState_KL_Trp_B_39] | 229 nM | 336 nM | 257 nM | 302 nM | 181 nM |
| UAACUUGCAGUGAUGUUGCAAGAACUGGAUACCAGCAUGGAAACAUGCCCUUGGCAGCCAGAAGGUAUCCUCUGCAAGAGAUACA [Design1] | 318 nM | 274 nM | 311 nM | 289 nM | 292 nM |
| GUCUCGAGUGAUGUUCGGGUCGUUUGGGAAGGAGCGCCCGGAAGGGCAGGUAGGUCGCCCGGACCGCGCGGGCAACCGCGCGGCC [#2 Same State - Arginine A Attempt #12 (HarryS)] | 228 nM | 162 nM | 217 nM | 212 nM | 192 nM |
| UCGGGCGGCUGAAGGAGCGGGCGGGCCCGAGUGAUGUUCGGGUGGGCUGUGAGGCCCGGAGCCCAGGUAGGUCGCGGUUCCGCCC [#2 Same State - Arginine B Attempt #28 (HarryS)] | 262 nM | 181 nM | 157 nM | 168 nM | 158 nM |
| UCUGUUGUAUAUGAUACCAGCAGUGAGAGACAGGAAGUAUAGUGAUGUUAUAUGAGAGAAUGCCCUUGGCAGCGUGUGCGGUUGG [SSTheophylB.W] | 191 nM | 158 nM | 155 nM | 148 nM | 131 nM |
| GGGAGUGAUGUUCCCGCGUUGACGGUCCUCCGAGGACCGGUACGGCCGCCACUCGAAACCCAGUGAUGUUGGGACUCACCGUACU [Exclusion Tryptophan A GF 11] | 511 nM | 504 nM | 511 nM | 620 nM | 435 nM |
| CCUGCUACGUAAGGAUAUGGAAAUGAGUGAUGUUUAGAGAUAUGGUCCAGGUUUAGUCAUCAUAGACCAGAAGGUACAUCGGGCG [theeternabot_exclusion_KL_FMN_B_8] | 825 nM | 321 nM | 588 nM | 364 nM | 400 nM |
| AAUCGCGAGUCAGAUACCAGUUGGCUCGAGAGUCAGUGAUGUUGAUGUAAAUCUUAGGCGAACCCUUGGCAGCUGUCACCAGUCC [theeternabot_sameState_KL_Theo_B_27] | 404 nM | 326 nM | 354 nM | 346 nM | 325 nM |
| GAUAGUUAGAGAGAUACCAGCGAUACCUAGAUGGAAAGUGAUGUUCGCCAUCAAUUGCACCGCCCUUGGCAGCUCUCUCUUUGCU [theeternabot_exclusion_KL_Theo_B_37] | 995 nM | 763 nM | 1170 nM | 974 nM | 959 nM |
| UGAUACCAGACUGAUACCAGCCACAGAGUCAAAGACUCUGAUAAAGGUACCAGUGAUGUUGGCCCUUGGCAGCAGUCUGGUAUCU [TheoBX 17 #SwitchBubble #StaticStem] | 158 nM | 126 nM | 143 nM | 151 nM | 141 nM |
| AAUAAUAAUAAAUAUAGAUUGAUGAGCAAACGAGGACCGGUACGGCCGCCACUCGAGUGAUGUUCGAGAAGCUCAUCAAUCAUAA [AK4.6 Exc Tryptophan A] | 180 nM | 131 nM | 141 nM | 141 nM | 372 nM |
| GCCGUAGAUUGAAGGAGCGGGCCGUAGUGAUGUUACGCCAAAUUAUCCUUUCUUGAGGUGGUCCAGGUAGGUCGCAAUCUACGGC | 168 nM | 144 nM | 148 nM | 109 nM | 118 nM |
| GUUACGCAUGGAAGGAGCGCGAAAAUUUAUAGUGAGUGAUGUUCACAAAUAAGAAUAAUAACGCAGGUAGGUCGCCAUGUGUAAC [Ex Arginine B K4 5] | 87.1 nM | 86.8 nM | 105 nM | 118 nM | 95.2 nM |
| AUUUGUUUAUGUGAUACCAGACUAAGCAGUGAUGUUGCUUUUAUUUUUGAAUUUUAAAUAGUCCCUUGGCAGCACUAUGUAUUUA [JR_SSTheophyB_Sub010] | 60.6 nM | 93.1 nM | 70.2 nM | 99.2 nM | 60.3 nM |
| ACGCGCGAGACGGCCGCCACUAUACGUCGAGUGAUGUUCGAGCCAAGAUGUCGUUACGUUUAUAAUAGGACCGGGUCAAUGGAUU [theeternabot_sameState_KL_Trp_B_19] | 596 nM | 512 nM | 583 nM | 661 nM | 513 nM |
| UUUUUUAAGAUAUUGACCAACCCGAAGCUACGAGGACCGGUACGGCCGCCACUCGCCAGUGAUGUUGGCGACUGGUGAAACCAUG [KL-XTryp-A24] | 126 nM | 98.9 nM | 106 nM | 105 nM | 185 nM |
| UCGAAGGAUGGAAGGAGCGCUCGUCAGUCCUGCGAGUGAUGUUCGUGGGUAAAUAUUCGCGAGCAGGUAGGUCGCCAUCUUGAGA [Laatla] | 135 nM | 96.7 nM | 112 nM | 108 nM | 129 nM |
| GCGCGUCAUGUCAGCGGUGACUACGUCGAUACCAGCAGGGAAACCUGCCCUUGGCAGCGACGCGCUGGAGUGAUGUUCCGACGGC [#2 Exclusion - Theophylline A Attempt #7 (HarryS)] | 184 nM | 176 nM | 180 nM | 318 nM | 159 nM |
| UAGCAUUUGCUCGAGUGAUGUUCGAGCGAAGGAGCGCGAGAAAUCGCAGGUAGGUCGCGCUCGAACUAUGAGCGAUCAUUUAUUG [Arg A Ex t2d] | 363 nM | 232 nM | 312 nM | 395 nM | 331 nM |
| UUAGUCAGAUUAUUAUUAGCCUGCGAGUCUAAGGAUAUCCGAAUUCGGAGAAGGUAGUGAUGUUACUUUGGCAGGCACUGACAUU [AK9 Exc FMN A] | 807 nM | 357 nM | 431 nM | 414 nM | 351 nM |
| CUCGUGGGUUUGAGAGGGCUUGUGGGAAGUGAGGAUAUUUAGGGAGAAAGAAGGCACUAUAGAAUAUAGUGAUGUUAUAUAUGGG [SSFMNA.Q] | 313 nM | 109 nM | 264 nM | 69.3 nM | 256 nM |

| Sequence | apparent KD of K4 kissing-loop reporter (input ligand: FMN 200 uM) | apparent KD of K4 kissing-loop reporter (input ligand: arginine 13.2 mM) | apparent KD of K4 kissing-loop reporter (input ligand: none) | apparent KD of K4 kissing-loop reporter [1] | apparent KD of K4 kissing-loop reporter [2] |
| --- | --- | --- | --- | --- | --- |
| UGUCAUUGGUCGGCCGCCACUCCAUAAAGAGUGAUGUUCUAAAAGACGGAUCGAAAGAUCUGUCGGAGGACCGGGACCGAUGACU [FiskerMod 4 - Jieux - Same State - Tryptophan B] | 1190 nM | 555 nM | 1090 nM | 549 nM | 243 nM |
| AACUUAAUUUAUAAGCAGUGAUGUUGCUCACGAGGACCGGUACGGCCGCCACUCGAUCGGACUUAGGUCUUCAAUUAUUUCAUUA [JR_ExcTryptoA_Sub017] | 149 nM | 192 nM | 163 nM | 199 nM | 145 nM |
| CGUGCCCAGCCGGAUACCAGUGACCCGCUGGGAACCGCGGGCCCAGAGUGAUGUUCGGGACACCCUUGGCAGCCGCCUGGGCGGU [#2 Same State - Theophylline B Attempt #11 (HarryS)] | 1170 nM | 343 nM | 584 nM | 1190 nM | 791 nM |
| AAGGUUGUGCAUGGGAGUGAUGUUCCCAAGCAGGAUAUCGCUCACGCGAGAAGGGCUAGCACAACCGCUCAAGAAACUUGAGCAA [Omei KL FMN A SS C v5] | 121 nM | 118 nM | 147 nM | 132 nM | 120 nM |
| UAACUGCAGUGAUGUUGCAGAUGUCCUGACUAGGAUAUCAGGAAACUGAGAAGGAGUCCCUUCUACACUGCAGAGAAGGAGGACA [[K1]-[K2]-[F1]'-[F1]-[F2]-[F2]'-[K]'-[F]''_Design1] | 283 nM | 125 nM | 145 nM | 125 nM | 139 nM |
| ACAUCGGUUGAGAGUGAUGUUCCUUGUGUUCGAGGACCGGUACGGCCGCCACUCGGGUAGAAAAUAACAGAUGUGUUUCAUUUUU [BDazzled - #17 SS Tryptophan A] | 180 nM | 93.2 nM | 141 nM | 277 nM | 271 nM |
| UGUAUGGACUGAAGGAGCGCUAGGAGUGUGAGUGAUGUUCAUACAAAUGUAUAGAUGGUCUGGCAGGUAGGUCGCAGUCCAUACU [KL-SSArg B4] | 258 nM | 145 nM | 203 nM | 156 nM | 184 nM |
| GCAUCCUAGUCGGCCGCCACUAACAUGAGUGAUGUUCAUGUACGUCAGUGAUGUUGACGUAGUUAUAGGACCGGGACUAGGAUGC [KL-SSTryp-B7 Brourdwalk3] | 146 nM | 119 nM | 137 nM | 118 nM | 120 nM |
| AGAAGGAGACUUGCAACGACUCCUUCAGACUAGGAUAUCAGGAAACUGAGAAGGAGUCUACUUGCAGUGAUGUUGCAAGAAUAAU [[F]''-[K]'-[F]'-[F1]-[F2]-[K1]-[K2]_Design3] | 129 nM | 147 nM | 130 nM | 135 nM | 125 nM |
| AAUAAAAUCACGGCCGCCACUGAUGUUAAUAUUAGCAGUGAUGUUGCUAUGUCGUUUUUCUUUAACAGGACCGGGUGAAUAUUUA [#22 K4 Tryptophan B Exclusion] | 156 nM | 150 nM | 170 nM | 171 nM | 148 nM |
| GGUAGCAUGGCGGCCGCCACUCAUGUAGAUACCUACAUAGUAAGCAGUGAUGUUGCUUUGUGGUUGAGGACCGGGCCAUGCUACC | 167 nM | 140 nM | 151 nM | 161 nM | 255 nM |
| UCGGACGCGCACCUAGGCCAAUCCACUGCGAAGGAUAUGCGCGCCAGCAGAAGGUCGUUUUAUGAGUGAUGUUUAGAAACAGCGU [theeternabot_exclusion_KL_FMN_A_25] | 428 nM | 250 nM | 305 nM | 294 nM | 246 nM |
| GCGUAGGAAGAAGGAUAUCACAGGAUGCCACGUUAGUGAUGUUAAUUUGGUUCAGCGCGAUUCUGAUGAGAAGGUCUUUUAUGAU [theeternabot_sameState_KL_FMN_B_47] | 220 nM | 300 nM | 295 nM | 205 nM | 210 nM |
| UGACUGGACUGAAGGAGCGUGGAAGGAGCGUAAGUAGUGAUGUUGCUUACAGGUAGGUCGCCGCAGGUAGGUCGCAGUCUAGUCU | 62.5 nM | 47.4 nM | 56.5 nM | 53.6 nM | 63.5 nM |
| GAACGAGUGAUGUUCGUUAUUAUGCAUUCCGAGGAUAUGGGAUUAGCCAGAAGGCGGAAUCAAUCUUCGAGUGAUGUUCGAAGAU [Same State FMN A GF 11] | 129 nM | 138 nM | 142 nM | 119 nM | 136 nM |
| CGGAUGUAGUGAUGUUAUAUUAGAUGUAGACGAGGACCGGUACGGCCGCCACUCGUGACGGCUGCUAGCGCGUUGCGAGGUGUGC [ExTryptoA.Cm] | 729 nM | 575 nM | 657 nM | 690 nM | 603 nM |
| CUAGGUAACACAGGAUAUGUCCGAGUGAUGUUCGAGCCUUUCCAUUGACGAAAUUAAUGGUGGGUGACAGAAGGGUGAGUACUGA [Uses] | 457 nM | 640 nM | 1090 nM | 640 nM | 828 nM |
| GAGCCAGAGGUUGCUGCGGGUUCCAGAGAUACCAGCCGUAUUGAAGGCCCUUGGCAGCUCGAGUGAUGUUCGAGCCGCCUCUGAC [Isquleorve] | 119 nM | 104 nM | 97.2 nM | 108 nM | 110 nM |
| GGUGUGCCAAGUGAUGUUUGGCGUUCUCACCGAGGACCGGUACGGCCGCCACUCGUUAACUGACCAAGUAUCUUUACCUCGGAGA [theeternabot_sameState_KL_Trp_A_8] | 168 nM | 141 nM | 159 nM | 187 nM | 156 nM |
| UGUGGAGGAUAUGAUACCAGCAGUGAGAGAGAGGAAGUAUAGUGAUGUUAUAUGAGAGAAUGCCCUUGGCAGCGUGUGUAGUGGG [SSTheophylB.K] | 184 nM | 137 nM | 146 nM | 176 nM | 145 nM |
| GCCGUACGCAUGGAUACCAGCUGCGAAGUGAUGUUUCGGGCGAUCAAAGGAUCGCCCUACAGCCCUUGGCAGCCAUGCGUACGGC | 215 nM | 117 nM | 173 nM | 125 nM | 118 nM |
